# Data taken from the RNAGym collection of RNA variant scans (doi:10.1073/pnas.2313332121).
# This sample holds only a part of the variants without activity.
# B1: TPR 5TU (parent)
# chain: GGAUCUUCUCGAUCUAACAAAAAAGACAAAUCUGCCACAAAGCUUGAGAGCAUCUUCGGAUGCAGAGGCGGCAGCCUUCGGUGGCGCGAUAGCGCCAACGUUCUCAACUAUGACACGCAAAACGCGUGCUCCGUUGAAUGGAGUUUAUCAUG
# Variants of: B1
# Experiment: polymerase ribozyme fitness, log enrichment relative to wild type (log ratio); higher = more active; in vitro selection for triplet polymerase activity
# How it was run: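 Mutant libraries were PCR-built and transcribed for each subunit of a heterodimeric triplet polymerase ribozyme and selected for one round in triplicate at −7 °C, frozen, before gel excision of extended constructs and streptavidin-bead capture. Input and output libraries were Illumina-sequenced, keeping genotypes with ≥10 input reads and ≥1 read per output. Fitness is a logarithmic ratio of genotype to wild-type enrichment, in base 2, using inverse-variance-weighted replicate averages.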
row,Variant,polymerase ribozyme fitness (log ratio)
1,A19U C96G A142C,-2.72
2,A19U C36U G86C C93U G100A G126C,≤ -4.2
3,A20U A21G A30G C99A,-4.05
4,A19G U55A C87A A106G G124C G136C C149A A150C,≤ -4.2
5,A20C A113U U127A,≤ -4.2
6,A20U A137C,-3.99
7,A19G U55A C85A,-2.52
8,A20G G46A U55G G70A C76U G84A C96U C103G C114U G152U,≤ -4.2
9,A20G A21U G59C C69A A98G U109A,≤ -4.2
10,A19U C75U U139G G140A U151G,≤ -4.2
11,A21G A49G C63G C96U A98U C125G,-0.663
12,A19G G94U C96U C116A C125U G133U,≤ -4.2
13,A20G C38A C95U C125U G140C,≤ -4.2
14,A21G A52U C85G A119G C125U A137U,≤ -4.2
15,A20G C27G G42C G58C G68A A121C C125U G140A,≤ -4.2
16,A19U A60G C72U G143U,≤ -4.2
17,A21C A40C G94A G128U,-3.51
18,A20G U33A U55G C87A G140C,≤ -4.2
19,A19U G58C C87U C95U C116G,-1.52
20,A21C A52G C103G,-1.21
21,A20C A28U C93U C129U G143A,≤ -4.2

row,Variant,polymerase ribozyme fitness (log ratio)
1,A20C A47U U101A A122U,-0.358
2,A21C C85G C103U G136A,-1.18
3,A19G U55A G83A A97G G124A A142C,≤ -4.2
4,A21C A24U G46U C57U C93U,-1.65
5,A20U A22U C57A C96G C125U,-3.05
6,A19G G48A C75G C93A,≤ -4.2
7,A20G C27G A29U A97G A120G U146G,-4.06
8,A20U G62C G94A,-3.04
9,A19U U56A A60G C75U C93A C118U U146A,-3.86
10,A21C A91G C96U,-3.34
11,A20G C96U,-0.654
12,A19U A60U C93U C114U,-4.17
13,A20C C27U C87U G92A U101A,-1.49
14,A20U G42U U90G C96A G117A A137U,≤ -4.2
15,A20C A21U U55A G59C C85A G126U,-0.602
16,A20U G59A G88A C95G U151A,≤ -4.2
17,A20U A26G C27A C36U C93U A147U,≤ -4.2
18,A21C C43A G50C G74C C76A C87A A91G A119G,≤ -4.2
19,A20U G67U C116G,≤ -4.2
20,A19U C35G C43A U56A G58U C85U A113G A122C U151A,≤ -4.2
21,A19U U33A G34A C79A C118U C125A C132U G133A A142C U148G,≤ -4.2

row,Variant,polymerase ribozyme fitness (log ratio)
1,A21G C116G,1.2
2,A21C A23G C85G G141C,-3.89
3,A20U G59A C93A,-4.07
4,A20G C36U A119U A120C C129U A142G,-4.1
5,A20G A41G C54U U56A C93G A120G U139G,-2.99
6,A20G A21C G92A C108G,≤ -4.2
7,A19U C43U A73U C79U A106U A107C,≤ -4.2
8,A20C A28C A37U G42U G71A C85U C99G A106G C131G,≤ -4.2
9,A20G G46A U146A,-1.3
10,A20G A40C A49C G50A G65C G68A C87U G124U,≤ -4.2
11,A20C U55A C132A A137G G143A U146G,≤ -4.2
12,A19G G48C G86A C103U C108G,≤ -4.2
13,A20C A22C C43U G83C,≤ -4.2
14,A19G C27A C57A G92U A97G G133A U134G,≤ -4.2
15,A21C C32G G50A C93U A119U,≤ -4.2
16,A21C U61G C85U,0.133
17,A19G C51U A52C A60U G65A G84U C85A C87U A98C A138G,≤ -4.2
18,A21C C93U A97U C116U C123U,-0.404
19,A21C U61A A89U U90G G100U G136A A138C U144G,≤ -4.2
20,A19U U55A C63A A142U U148C,≤ -4.2
21,A21G C51U U53A C96U G126U,-2.46

row,Variant,polymerase ribozyme fitness (log ratio)
1,A21G C38U A47C U90A C96A A137U,≤ -4.2
2,A21C U56G C85A C87U G92A,-3.51
3,A20U A28U A64C C79U C93A C114U,≤ -4.2
4,A19G C69G C76U U82G G88A G141U A150C,≤ -4.2
5,A20C U55A A110G,-3.9
6,A19G G83C C87U U101G,≤ -4.2
7,A19U A21U G46C C96A U134A,≤ -4.2
8,A21C A29U C43A U55A G83A A107C,≤ -4.2
9,A19U C51U C54A C85G C132G,≤ -4.2
10,A21C C51U A106G,-0.144
11,A20U A21U A37C C96A A121G,-1.8
12,A21C C69A,-1.75
13,A21C U53G C87A C95A C149G,≤ -4.2
14,A20U A113U,-3.74
15,A21C U56A C93A A121C U146G C149U,-2.29
16,A20G A22C G25C C57A G92A C99U C108A,≤ -4.2
17,A19U G92C,-1.68
18,A19U A23U U90G C105A,≤ -4.2
19,A19U A23C A91U,≤ -4.2
20,A20C C54U G70C C93A,≤ -4.2
